Assay results reported in US20150368659.

Assays:
[1] = system: GBSS_T1 TALE-nuclease right monomer (synthetic construct (Xanthomonas TALE)?); test: cell_activity; conditions: pair with left monomer; S. tuberosum protoplasts; 23% with TREX2 co-delivered; full target SEQ 5
[2] = system: GBSS_T1 TALE-nuclease left monomer (synthetic construct (Xanthomonas TALE)?); test: cell_activity; conditions: pair with right monomer; S. tuberosum protoplasts; 23% with TREX2 co-delivered; full target SEQ 5

AGCTTGATGGGCTCCAA (double strand) [GBSS_T1 right half-site]
activity (% NHEJ mutagenesis) [1]: 11

TCTGACTCACAATGGTT (double strand) [GBSS_T1 left half-site]
activity (% NHEJ mutagenesis) [2]: 11
